## GST fusion of the catalytic domain of the Xanthomonas campestris pathovar vesicatoria protease XopD (GST-XopD)
6xHis-T-SUMO-eGFP
  activity level (grade): +/-
6xHis-hSUMO-1-eGFP
  activity level (grade): -
6xHis-hSUMO-3-eGFP
  activity level (grade): -
6xHis-AtSUMO2-eGFP
  activity level (grade): +/-
6xHis-AtSUMO1-eGFP
  activity level (grade): -
6xHis-ySmt3-eGFP
  activity level (grade): +/-

— US20100021987
